Test results reported in patent US20190375846A1 (ULTRAHUMAN ONE, published 2019).
Residue numbers refer to the chain shown, from its start.

T1: human GITR-Fc (human, UniProt Q9Y5U5 26-161)
T1 construct: Recombinant GITR-Fc; also called hGITR-Fc; hGITR; not shown: Fc part
T1 sequence (looked up): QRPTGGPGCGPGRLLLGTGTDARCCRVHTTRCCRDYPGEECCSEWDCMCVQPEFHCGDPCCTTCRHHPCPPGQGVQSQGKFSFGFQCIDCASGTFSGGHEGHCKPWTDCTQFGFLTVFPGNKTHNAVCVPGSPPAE

T2: hVCAM-1 (human, UniProt P19320)
T2 construct: purified recombinant protein; Member of the panel m8; the axis also carries a separate label hVCAM-Fc (f6)
T2 sequence (looked up): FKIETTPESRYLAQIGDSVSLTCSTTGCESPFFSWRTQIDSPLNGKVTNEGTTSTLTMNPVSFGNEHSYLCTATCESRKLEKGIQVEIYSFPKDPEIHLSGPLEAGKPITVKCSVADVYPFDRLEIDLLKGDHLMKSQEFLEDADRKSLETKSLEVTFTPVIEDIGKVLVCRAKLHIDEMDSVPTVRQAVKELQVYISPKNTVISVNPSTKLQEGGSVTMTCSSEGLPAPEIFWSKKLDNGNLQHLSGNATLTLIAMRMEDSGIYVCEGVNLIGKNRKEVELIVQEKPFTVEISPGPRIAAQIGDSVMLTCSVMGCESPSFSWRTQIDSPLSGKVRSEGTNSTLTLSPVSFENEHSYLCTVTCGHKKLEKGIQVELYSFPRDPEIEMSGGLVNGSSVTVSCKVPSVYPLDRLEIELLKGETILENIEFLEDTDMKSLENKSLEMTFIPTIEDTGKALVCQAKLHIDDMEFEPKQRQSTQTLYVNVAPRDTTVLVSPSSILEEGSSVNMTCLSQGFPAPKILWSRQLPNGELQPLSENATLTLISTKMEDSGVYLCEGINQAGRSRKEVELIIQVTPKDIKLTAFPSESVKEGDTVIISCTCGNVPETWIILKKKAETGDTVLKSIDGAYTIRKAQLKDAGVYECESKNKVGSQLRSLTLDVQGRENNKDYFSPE

T3: hEpCAM-Fc (human, UniProt P16422)
T3 construct: recombinant Fc fusion; Member of the panel m8
T3 sequence (fusion chain, looked up): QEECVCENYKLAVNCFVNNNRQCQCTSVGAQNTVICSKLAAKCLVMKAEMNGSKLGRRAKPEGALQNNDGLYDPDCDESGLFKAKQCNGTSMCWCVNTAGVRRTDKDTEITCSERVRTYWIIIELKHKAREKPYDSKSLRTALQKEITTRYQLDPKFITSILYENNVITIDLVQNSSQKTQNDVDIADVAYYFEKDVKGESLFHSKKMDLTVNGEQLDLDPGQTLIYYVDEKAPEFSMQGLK

T4: hDR3-Fc (human, UniProt Q93038)
T4 construct: recombinant Fc fusion; Member of the panel m8
T4 sequence (fusion chain, looked up): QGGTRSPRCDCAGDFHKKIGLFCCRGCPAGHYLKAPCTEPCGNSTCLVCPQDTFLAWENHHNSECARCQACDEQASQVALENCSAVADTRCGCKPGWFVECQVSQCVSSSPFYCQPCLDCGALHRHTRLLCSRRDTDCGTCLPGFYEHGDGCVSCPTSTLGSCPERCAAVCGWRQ

B1: chimeric anti-GITR IgG1 mVH/mVL (6C8 murine v-domains) (antibody, V domains shown)
VH: QVTLKESGPGILKPSQTLSLTCSFSGFSLSTSGMGVGWIRQPSGKGLEWLAHIWWDDDKYYNPSLKSQLTISKDTSRNQVFLKITSVDTADAATYYCARTRRYFPFAYWGQGTLVTVSS
VL: DIVMTQSQKFMSTSVGDRVSVTCKASQNVGTNVAWYQQKPGQSPKALIYSASYRYSGVPDRFTGSGSGTDFTLTINNVHSEDLAEYFCQQYNTDPLTFGAGTKLEIK
notes: Full-length human IgG1, kappa; also called GITR-mVH/mVL; chimeric IgG
B2: D-A6 IgG1 (antibody, V domains shown)
VH: EVQLVESGGGLVQPGGSLRLSCAASGFSLSTSGYGVGWVRQAPGKGLEWLAHIWWDDDKYYVDSVKGRFTISRDNAKNSLYLQMNSLRAEDTAVYYCARTRQYFPFAYWGQGTLVTVSS
VL: EIVLTQSPATLSLSPGERATLSCRASQSVGSNLAWYQQKPGQAPRLLIYSASYRYTGIPARFSGSGSGTDFTLTISSLEPEDFAVYYCQQYSTDPLTFGGGTKVEIK
notes: Human IgG1
B3: VH3/VL2 IgG1 (antibody, V domains shown)
VH: B2 VH with Y34M, Q102R
VL: B2 VL with S28N, S31T, L33V, T56S, S92N
notes: Human IgG1; template of the mutagenesis library; also called G-VH3/VL2; VH3 family
B4: I-C2 IgG1 (antibody, V domains shown)
VH: B2 VH with Q102L
VL: B2 VL with S28N, Y53N, T56S
notes: Human IgG1
B5: G-G10 IgG1 (antibody, V domains shown)
VH: B2 VH with S32F
VL: B2 VL with S31T, S50Y, T93N
notes: Human IgG1

biological target: T5, cynomolgus monkey GITR at the cell surface (cynomolgus monkey); test: flow cytometry, cyno GITR-transfected murine blastoma cells, 10,000-13.7 ng/ml
T5 construct: whole, on cells; also called cyno GITR+ cells
Protocol: Concentration-dependent binding to GITR at the cell surface was analysed using flow cytometry.

Binder	concentration at maximum MFI
B1	~1110 ng/mL
B2	~1110 ng/mL
B3	~1110 ng/mL
B4	~1110 ng/mL
B5	~1110 ng/mL

biological target: T1, human GITR-Fc; test: direct ELISA, IgG at 1 µg/ml
Protocol: (§1) Off-target homologue binding risk for mVH/mVL (FIG. 8A), VH3/VL2 (FIG. 8B) and lead engineered IgG clones G-G10 (FIG. 8C), I-C2 (FIG. 8D) and D-A6 (FIG. 8E) was examined by direct ELISA on GITR-Fc orthologs and a panel of 13 human TNFRSF and immunoglobulin superfamily proteins (as labelled on each X-axis). Binding to human, cyno and murine GITR-Fcs (h/c/mGITR-Fc) was performed at an IgG concentration of 1 μg/ml. Binding to all other proteins was performed at an IgG concentration of 10 μg/ml.
(§2) Anti-GITR antibodies were tested for polyreactivity by ELISA. Purified, recombinant, target and non-target antigens were coated in 96-well Nunc maxisorp plates at 100 ng per well in carbonate buffer, at 4° C. overnight. Plates were then washed 3× with PBS, blocked with 1% BSA in PBS, then washed 3× with PBS-Tween20. A dilution series of primary antibodies was then applied, plates were washed 3× with PBS-Tween20 followed by application of goat anti-human kappa chain-HRP 1:4,000 secondary antibody. Wells were then washed 3× with PBS-Tween20 and 2× with PBS, 100 μl TMB peroxidase substrate was added per well, the was reaction stopped by adding 100 μl 2M H₂SO₄ and absorbances were read at 450 nm. Anti-GITR antibodies were also tested for binding specificity by flow cytometry. HuT78 cells were activated by incubation with anti-CD3/anti-CD28 beads for 3 days. Naïve cells were incubated in media alone. At the end of the incubation the cells were harvested and the beads removed from the activated cells using a magnet. Cells were incubated with viability dye and then stained with anti-GITR antibodies at 4° C. […] Binding of VH1/VI1 and D-A6 IgG1 proteins were detected by subsequent incubation with a PE labelled goat anti-human IgG. Cells were fixed with 4% PFA before being stored in PBS at 4° C. overnight. Cells were analysed the next day using a BD Fortessa flow cytometer running Diva software. Analysis was performed using FlowJo software.

Binder	OD450 nm
B1	> 3 OD450 nm
B2	> 3 OD450 nm
B3	> 3 OD450 nm
B4	> 3 OD450 nm
B5	> 3 OD450 nm

biological target: T6, cynomolgus monkey GITR-Fc (cynomolgus monkey (Macaca fascicularis)); test: direct ELISA, IgG at 1 µg/ml
T6 construct: also called cyno GITR-Fc; cGITR-Fc
Protocol: as §1, §2

Binder	OD450 nm
B1	> 1 OD450 nm
B2	> 1 OD450 nm
B3	> 1 OD450 nm
B4	> 1 OD450 nm
B5	> 1 OD450 nm

biological target: T7, hLTBR-Fc (human, UniProt P36941); test: direct ELISA on coated protein, IgG at 10 µg/ml, OD 450 nm
T7 construct: recombinant Fc fusion; Member of the panel m8
T7 sequence (P36941 28-227 limits assumed): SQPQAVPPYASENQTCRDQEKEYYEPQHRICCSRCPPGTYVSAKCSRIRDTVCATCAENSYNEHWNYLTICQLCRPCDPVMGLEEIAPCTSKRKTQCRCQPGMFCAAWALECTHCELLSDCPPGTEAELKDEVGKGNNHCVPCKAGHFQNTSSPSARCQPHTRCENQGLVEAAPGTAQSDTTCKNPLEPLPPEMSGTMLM
Protocol: as §1, §2

Binder	binding result
B1	no binding (tested: 10 µg/ml)
B2	no binding (tested: 10 µg/ml)
B3	no binding (tested: 10 µg/ml)
B4	no binding (tested: 10 µg/ml)
B5	no binding (tested: 10 µg/ml)

biological target: T8, hBAFFR-Fc (human, UniProt Q96RJ3); test: as above
T8 construct: recombinant Fc fusion; Member of the panel m8
T8 sequence (Q96RJ3 7-71 limits assumed): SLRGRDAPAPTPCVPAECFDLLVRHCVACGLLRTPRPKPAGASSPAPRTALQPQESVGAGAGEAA
Protocol: as §1, §2

Binder	binding result
B1	no binding (tested: 10 µg/ml)
B2	no binding (tested: 10 µg/ml)
B3	no binding (tested: 10 µg/ml)
B4	no binding (tested: 10 µg/ml)
B5	no binding (tested: 10 µg/ml)

biological target: T2, hVCAM-1; test: as above
Protocol: as §1, §2

Binder	binding result
B1	no binding (tested: 10 µg/ml)
B2	no binding (tested: 10 µg/ml)
B3	no binding (tested: 10 µg/ml)
B4	no binding (tested: 10 µg/ml)
B5	no binding (tested: 10 µg/ml)

biological target: T3, hEpCAM-Fc; test: as above
Protocol: as §1, §2

Binder	binding result
B1	no binding (tested: 10 µg/ml)
B2	no binding (tested: 10 µg/ml)
B3	no binding (tested: 10 µg/ml)
B4	no binding (tested: 10 µg/ml)
B5	no binding (tested: 10 µg/ml)

biological target: T4, hDR3-Fc; test: as above
Protocol: as §1, §2

Binder	binding result
B1	no binding (tested: 10 µg/ml)
B2	no binding (tested: 10 µg/ml)
B3	no binding (tested: 10 µg/ml)
B4	no binding (tested: 10 µg/ml)
B5	no binding (tested: 10 µg/ml)

biological target: T9, hICAM-1-Fc (human, UniProt P05362); test: as above
T9 construct: recombinant Fc fusion; Member of the panel m8
T9 sequence (P05362 28-480 limits assumed): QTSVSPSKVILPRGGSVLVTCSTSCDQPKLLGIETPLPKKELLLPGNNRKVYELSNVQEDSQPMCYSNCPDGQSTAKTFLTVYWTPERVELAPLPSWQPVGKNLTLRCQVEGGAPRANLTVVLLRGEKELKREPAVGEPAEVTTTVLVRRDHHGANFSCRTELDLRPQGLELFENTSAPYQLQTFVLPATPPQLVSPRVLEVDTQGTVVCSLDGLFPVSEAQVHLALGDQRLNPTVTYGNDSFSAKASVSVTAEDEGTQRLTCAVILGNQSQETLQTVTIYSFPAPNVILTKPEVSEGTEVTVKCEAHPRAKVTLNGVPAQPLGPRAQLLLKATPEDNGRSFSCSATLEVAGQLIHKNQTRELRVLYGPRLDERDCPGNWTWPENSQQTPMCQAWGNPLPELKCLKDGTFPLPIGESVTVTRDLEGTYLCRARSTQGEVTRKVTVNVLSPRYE
Protocol: as §1, §2

Binder	binding result
B1	no binding (tested: 10 µg/ml)
B2	no binding (tested: 10 µg/ml)
B3	no binding (tested: 10 µg/ml)
B4	no binding (tested: 10 µg/ml)
B5	no binding (tested: 10 µg/ml)

biological target: T10, hCD4 (human, UniProt P01730); test: as above
T10 construct: purified recombinant protein; Member of the panel m8
Protocol: as §1, §2

Binder	binding result
B1	no binding (tested: 10 µg/ml)
B2	no binding (tested: 10 µg/ml)
B3	no binding (tested: 10 µg/ml)
B4	no binding (tested: 10 µg/ml)
B5	no binding (tested: 10 µg/ml)
